Drawing on paper PMC6137059, this text covers binding signal and Kd for 7 sequences.

The target of the data set is TcpK (Clostridium perfringens (plasmid pCW3)) (UniProt Q1PLI2). The data set can be described thus: SPR. The conditions noted are these: SPR: 10 mM HEPES pH 7.4, 200 mM NaCl, 3 mM EDTA, 0.05% Tween 20, 20 C.
Consider “AAGGAACTTTACAAGGAACTTTA (double strand) [linker CAA]”, for which the binding signal stood at 25 % Rmax.

Regarding “AAGGAACTTTACAGGGAACTT (double strand) [R2L10]”, the binding signal turned out to be 55 % Rmax.

Take “AAGGAACTTTACAGGGAACTTTA (double strand) [R2L9]”: the binding signal was found to be 100 % Rmax.

Consider “AAGGAACTTTACAGGGAACTTTA (double strand) [oriTmin23 (SPR)]”, for which the Kd came out at 0.36 µM. In other words, the sub-micromolar range.

On to “AAGGAACTTTACAGGGAACTTTAAAAATTT (double strand) [oriT#1 (SPR)]”, for which the Kd was found to be 0.521 µM.

In the case of “AAGGAACTTTACAGGGAACTTTAAAAATTTAAATTGATA (double strand) [R2L1]”, the binding signal was found to be 100 % Rmax.

The sequence “ACAGGGAACTTTAAAAATTTAAATTGATAT (double strand) [oriT#2 (SPR)]” gave an equilibrium dissociation constant (Kd) of 2.58 µM.

In general, Kd refers to a measure of binding affinity in units of concentration. A higher Kd goes with lower affinity.
